# Source: the Immune Epitope Database (IEDB)
# Columns and labels:
# HLA-A*02:02 = test: IEDB peptide-MHC binding, purified MHC/competitive/radioactivity; filed as Kd, often an IC50 or EC50 that approximates it; ≥ and ≤ were set here for values at or beyond the usual limits of such assays
# HLA-A*02:03 = test: as above
# HLA-A*02:06 = test: as above
# HLA-B*07:02 = test: IEDB peptide-MHC binding, purified MHC/direct/fluorescence; filed as Kd, often an IC50 or EC50 that approximates it; ≥ and ≤ were set here for values at or beyond the usual limits of such assays
# HLA-B*15:01 = test: as above
# HLA-B*58:01 = test: as above
# HLA-A*30:01 = test: IEDB peptide-MHC binding, purified MHC/competitive/radioactivity; filed as Kd, often an IC50 or EC50 that approximates it; ≥ and ≤ were set here for values at or beyond the usual limits of such assays
# HLA-A*02:01 [1] = test: IEDB peptide-MHC binding, purified MHC/direct/fluorescence; filed as Kd, often an IC50 or EC50 that approximates it; ≥ and ≤ were set here for values at or beyond the usual limits of such assays
# HLA-A*02:01 [2] = test: IEDB peptide-MHC binding, purified MHC/competitive/fluorescence; ≥ and ≤ were set here for values at or beyond the usual limits of such assays
# HLA-A*69:01 = test: IEDB peptide-MHC binding, purified MHC/direct/fluorescence; filed as Kd, often an IC50 or EC50 that approximates it; ≥ and ≤ were set here for values at or beyond the usual limits of such assays
# HLA-A*26:01 = test: IEDB peptide-MHC binding, purified MHC/competitive/radioactivity; filed as Kd, often an IC50 or EC50 that approximates it; ≥ and ≤ were set here for values at or beyond the usual limits of such assays
# HLA-A*03:01 = test: as above; conditions: source organism: Dengue virus 1 Brazil/97-11/1997
# [3] = source organism: Vaccinia virus WR
# [4] = source organism: Dengue virus 2 Jamaica/1409/1983
# [5] = source organism: Zaire ebolavirus
# [6] = source organism: Shigella boydii
# [7] = source organism: Dengue virus 1 Brazil/97-11/1997
# [8] = source organism: Lymphocytic choriomeningitis virus (strain Armstrong)
# [9] = source organism: Mycobacterium tuberculosis variant bovis
# [10] = source organism: Human immunodeficiency virus type 1 (STRAIN UGANDAN / ISOLATE U455)
Sequence,Kd (HLA-A*02:02; [3]) [nM],Kd (HLA-A*02:03; [3]) [nM],Kd (HLA-A*02:06; [3]) [nM],other results
VTPEYIKDL,10400,≥ 78100,1760,
VGYVDDTQF,,,,Kd (HLA-B*07:02; source organism: Homo sapiens): 6180 nM; Kd (HLA-B*15:01; source organism: Homo sapiens): 572 nM; Kd (HLA-B*58:01; source organism: Homo sapiens): 210 nM
SLCPTKKLV,3160,2660,11900,
GSRVRNIIA,,,,Kd (HLA-A*30:01; [3]): 8.85 nM
VTYNIKPVIV,4920,116,358,
GLPPGTPAV,,,,Kd (HLA-A*02:01 [1]; source organism: Mycobacterium tuberculosis): 27.8 nM
GVFPVSIPIT,,,,Kd (HLA-A*30:01; [4]): 7360 nM
HIGHHYIWI,2550,899,≥ 25300,
VLTSVDIET,382,11300,13.7,
SNGLITSTV,,,,IC50 (HLA-A*02:01 [2]; source organism: Sudan ebolavirus): 60400 nM
DQTHIKTIAV,2170,390,1000,
KSLYSHQLV,,,,Kd (HLA-A*30:01; [3]): 12.3 nM
RVLYDEFVTI,153,178,6.62,
DTGEESASS,,,,IC50 (HLA-A*02:01 [2]; [5]): ≥ 425000 nM
KLPRWIFFA,,,,Kd (HLA-A*02:01 [1]; [6]): 1.5 nM; Kd (HLA-A*69:01; [6]): 951 nM
YVKFIYFIK,,,,Kd (HLA-A*30:01; [3]): 60 nM
YVVIGLLFM,,,,Kd (HLA-A*26:01; [7]): 12500 nM
GLKIEEIEKV,14.9,6.61,198,
IIKSPYMFA,,,,Kd (HLA-A*30:01; source organism: Vaccinia virus Copenhagen): 6.42 nM
KCMSAALKNL,,,,Kd (HLA-A*02:02; [8]): 57.9 nM; Kd (HLA-A*02:03; [8]): 192 nM; Kd (HLA-A*02:06; [8]): 14000 nM
HKIMASENS,,,,IC50 (HLA-A*02:01 [2]; [5]): ≥ 253000 nM
FVTLITGNM,,,,Kd (HLA-A*26:01; [4]): 1390 nM
YVGDLCGSV,,,,IC50 (HLA-A*02:01 [2]; source organism: Hepatitis C virus genotype 1): ≥ 50000 nM
WVMDTLNGIM,1330,194,129,

Sequence,Kd (HLA-A*02:02; [3]) [nM],Kd (HLA-A*02:03; [3]) [nM],Kd (HLA-A*02:06; [3]) [nM],other results
KQSQSYLTK,,,,Kd (HLA-A*30:01; [3]): 158 nM
LARWSSFKK,,,,Kd (HLA-A*03:01): 171 nM; Kd (HLA-A*30:01; [7]): 6.79 nM
CVRLNNPVIL,8560,5400,≥ 45100,
YLPEVISTIA,10.9,0.955,17.7,
LLDEPLSPDT,8510,10100,7840,
HIFYQLANV,,,,Kd (HLA-A*30:01; [3]): 60.4 nM
RTRDLFIAL,,,,Kd (HLA-A*30:01; [3]): 0.108 nM
ELRGLLKDV,,,,Kd (HLA-A*02:01 [1]; [9]): ≥ 20000 nM; Kd (HLA-A*69:01; [9]): 13000 nM
RLDGTTLEV,,,,IC50 (HLA-A*02:01 [2]; source organism: Mycobacterium leprae): 35 nM
HPDIVIYQY,,,,Kd (HLA-B*07:02; [10]): 13000 nM; Kd (HLA-B*15:01; [10]): 1510 nM
KLTKDRKML,≥ 24500,≥ 36400,≥ 77100,
LFVVTLIPLC,,,,Kd (HLA-A*30:01; source organism: Dengue virus 4 Philippines/H241/1956): 414 nM
FSYGTLIID,,,,IC50 (HLA-A*02:01 [2]; source organism: Variola virus): ≥ 283000 nM
SQIFNIISYI,61.7,181,23.5,
HAVYSIVFV,,,,Kd (HLA-A*30:01; [3]): 591 nM
ETLQRKYGGA,,,,Kd (HLA-A*26:01; [4]): 311 nM
GRLITANPIV,,,,Kd (HLA-A*30:01; [7]): ≥ 57100 nM
MTSLSAVSV,,,,Kd (HLA-A*30:01; [3]): 887 nM
RLVDSIGSW,,,,Kd (HLA-B*58:01; source organism: Influenza A virus (A/swine/IDT/Bakum1832/2000(H1N2))): 128 nM
ETFPNVHEHI,8020,6620,≥ 69800,
LVFNSISARA,1270,254,702,
EIPLQWIASA,,,,Kd (HLA-A*26:01; source organism: Dengue virus 3 Martinique/1243/1999): 2620 nM
YQNEVTPEYI,2.74,0.209,2.59,
VTSPLTGNNT,1450,2500,5130,
